The results in this text go back to patent US20210324108A1 (Hoffmann-La Roche, published 2021).

Test [1] concerns the target T1, recombinant human CD40_ECD (human, UniProt P25942 21-193).
T1 construct: also called human CD40 extra cellular domain
Put plainly: SPR Biacore T200, huCD40 ECD analyte, apparent KD. The protocol:
The capacity of the bispecific constructs to bind human CD40 was assessed by surface plasmon resonance (SPR). […] Bulk refractive index differences were corrected by subtracting the response obtained from a goat anti human F(ab′)2 surface. Blank injections are also subtracted (=double referencing). For calculation of apparent KD and other kinetic parameters the Langmuir 1:1 model was used. The apparent Kd was calculated using the Biacore™ B4000 evaluation software (version 1.1).
Background: Surface plasmon resonance follows binding to a sensor surface in real time, without labels.

In test [2] the target is T2, recombinant human FAP (human, UniProt Q12884 26-760).
T2 construct: exact construct not described; also called FAP ECD; not shown: The histidine tag (and any linker to it) implied by capture on an anti-histidine antibody
The test can be described thus: SPR, huFAP captured (anti-His), Ab analyte. The procedure: Around 12000 resonance units (RU) of the capturing system (15 μg/ml anti-histidine antibody; Order Code: 28995056; GE Healthcare Bio-Sciences AB, Sweden) were coupled on a CMS chip (GE Healthcare BR-1005-30) at pH 4.5 by using an amine coupling kit supplied by the GE Healthcare. Running buffer for Immobilization was HBS-N pH 7.4 (10 mM HEPES, 150 mM NaCl, pH 7.4, GE Healthcare). For the following kinetic characterization running buffer was PBS-P pH 7.4 (20 mM phosphate buffer, 2.7 mM KCl, 137 mM NaCl, 0.05% surfactant P20). The flow cell was set to 25° C.—and the sample block set to 12° C.—and primed with running buffer twice. […] The dissociation phase was monitored for up to 720 s and triggered by switching from the sample solution to running buffer. The surface was regenerated by washing with 10 mM Glycine pH 1.5 for 60 s at a flow rate of 30 μl/min. Bulk refractive index differences were corrected by subtracting the response obtained from an anti-histidine surface. Blank injections are also subtracted (=double referencing). For calculation of KD and kinetic parameters the Langmuir 1:1 model was used.

B1: FAP (4B9)-CD40 Contorsbody P1AE1901 (bispecific antibody, IgG1)
chain 1: not shown
chain 2: DIQMTQSPSSLSASVGDRVTITCRSSQSLVHSNGNTFLHWYQQKPGKAPKLLIYTVSNRFSGVPSRFSGSGSGTDFTLTISSLQPEDFATYFCSQTTHVPWTFGGGTKVEIKRTVAAPSVFIFPPSDEQLKSGTASVVCLLNNFYPREAKVQWKVDNALQSGNSQESVTEQDSKDSTYSLSSTLTLSKADYEKHKVYACEVTHQGLSSPVTKSFNRGECGGGGSGGGGSDKTHTCPPCPAPEAAGGPSVFLFPPKPKDTLMISRTPEVTCVVVDVSHEDPEVKFNWYVDGVEVHNAKTKPREEQYNSTYRVVSVLTVLHQDWLNGKEYKCKVSNKALGAPIEKTISKAKGQPREPQVCTLPPSRDELTKNQVSLSCAVKGFYPSDIAVEWESNGQPENNYKTTPPVLDSDGSFFLVSKLTVDKSRWQQGNVFSCSVMHEALHNHYTQKSLSLSPGKGGGGSGGGGSEVQLLESGGGLVQPGGSLRLSCAASGYSFTGYYIHWVRQAPGKGLEWVGRVIPNAGGTSYNQKFKGRFTISVDNSKNTAYLQMNSLRAEDTAVYYCAREGIYWWGQGTTVTVSSASTKGPSVFPLAPSSKSTSGGTAALGCLVKDYFPEPVTVSWNSGALTSGVHTFPAVLQSSGLYSLSSVVTVPSSSLGTQTYICNVNHKPSNTKVDKKVEPKSCGGGGSGGGGSGGGSGGGGSEVQLLESGGGLVQPGGSLRLSCAASGFTFSSYAMSWVRQAPGKGLEWVSAIIGSGASTYYADSVKGRFTISRDNSKNTLYLQMNSLRAEDTAVYYCAKGWFGGFNYWGQGTLVTVSSASVAAPSVFIFPPSDEQLKSGTASVVCLLNNFYPREAKVQWKVDNALQSGNSQESVTEQDSKDSTYSLSSTLTLSKADYEKHKVYACEVTHQGLSSPVTKSFNRGEC
notes: 2+1 contorsbody; IgG1 Fc knob/hole, P329G LALA
B1: in test [1], the Kd stood at 6.98 nM, the koff stood at 0.00692 s⁻¹, the on-rate (kon) stood at 991000 M⁻¹ s⁻¹ and the “t 1/2” value was 1.67 min. In test [2], the Kd was found to be 7.05 nM, the koff was determined as 0.000269 s⁻¹, the on-rate constant (kon) was 38200 M⁻¹ s⁻¹ and the “t 1/2” value stood at 43 min.

B2: FAP (4B9)-CD40 Contorsbody P1AE1902 (bispecific antibody, IgG1)
chain 1: not shown
chain 2: EVQLLESGGGLVQPGGSLRLSCAASGYSFTGYYIHWVRQAPGKGLEWVGRVIPNAGGTSYNQKFKGRFTISVDNSKNTAYLQMNSLRAEDTAVYYCAREGIYWWGQGTTVTVSSASTKGPSVFPLAPSSKSTSGGTAALGCLVKDYFPEPVTVSWNSGALTSGVHTFPAVLQSSGLYSLSSVVTVPSSSLGTQTYICNVNHKPSNTKVDKKVEPKSCGGGGSGGGGSDKTHTCPPCPAPEAAGGPSVFLFPPKPKDTLMISRTPEVTCVVVDVSHEDPEVKFNWYVDGVEVHNAKTKPREEQYNSTYRVVSVLTVLHQDWLNGKEYKCKVSNKALGAPIEKTISKAKGQPREPQVCTLPPSRDELTKNQVSLSCAVKGFYPSDIAVEWESNGQPENNYKTTPPVLDSDGSFFLVSKLTVDKSRWQQGNVFSCSVMHEALHNHYTQKSLSLSPGKGGGGSGGGGSDIQMTQSPSSLSASVGDRVTITCRSSQSLVHSNGNTFLHWYQQKPGKAPKLLIYTVSNRFSGVPSRFSGSGSGTDFTLTISSLQPEDFATYFCSQTTHVPWTFGGGTKVEIKRTVAAPSVFIFPPSDEQLKSGTASVVCLLNNFYPREAKVQWKVDNALQSGNSQESVTEQDSKDSTYSLSSTLTLSKADYEKHKVYACEVTHQGLSSPVTKSFNRGECGGGGSGGGGSGGGSGGGGSEVQLLESGGGLVQPGGSLRLSCAASGFTFSSYAMSWVRQAPGKGLEWVSAIIGSGASTYYADSVKGRFTISRDNSKNTLYLQMNSLRAEDTAVYYCAKGWFGGFNYWGQGTLVTVSSASVAAPSVFIFPPSDEQLKSGTASVVCLLNNFYPREAKVQWKVDNALQSGNSQESVTEQDSKDSTYSLSSTLTLSKADYEKHKVYACEVTHQGLSSPVTKSFNRGEC
notes: as for B1
As for B2, in test [1], the Kd is 18.7 nM, the koff amounted to 0.0145 s⁻¹, the kon amounted to 776000 M⁻¹ s⁻¹ and the “t 1/2” value worked out at 0.8 min. In test [2], the Kd is 5.33 nM, the koff turned out to be 0.000288 s⁻¹, the on-rate (kon) is 54100 M⁻¹ s⁻¹ and the “t 1/2” value was 40.1 min.

B3: FAP (4B9)-CD40 Contorsbody P1AE1800 (bispecific antibody, IgG1)
chain 1: not shown
chain 2: DIQMTQSPSSLSASVGDRVTITCRSSQSLVHSNGNTFLHWYQQKPGKAPKLLIYTVSNRFSGVPSRFSGSGSGTDFTLTISSLQPEDFATYFCSQTTHVPWTFGGGTKVEIKRTVAAPSVFIFPPSDEQLKSGTASVVCLLNNFYPREAKVQWKVDNALQSGNSQESVTEQDSKDSTYSLSSTLTLSKADYEKHKVYACEVTHQGLSSPVTKSFNRGECGGGGSGGGGSDKTHTCPPCPAPEAAGGPSVFLFPPKPKDTLMISRTPEVTCVVVDVSHEDPEVKFNWYVDGVEVHNAKTKPREEQYNSTYRVVSVLTVLHQDWLNGKEYKCKVSNKALGAPIEKTISKAKGQPREPQVCTLPPSRDELTKNQVSLSCAVKGFYPSDIAVEWESNGQPENNYKTTPPVLDSDGSFFLVSKLTVDKSRWQQGNVFSCSVMHEALHNHYTQKSLSLSPGKGGGGSGGGGSEVQLLESGGGLVQPGGSLRLSCAASGYSFTGYYIHWVRQAPGKGLEWVGRVIPNAGGTSYNQKFKGRFTISVDNSKNTAYLQMNSLRAEDTAVYYCAREGIYWWGQGTTVTVSSASTKGPSVFPLAPSSKSTSGGTAALGCLVKDYFPEPVTVSWNSGALTSGVHTFPAVLQSSGLYSLSSVVTVPSSSLGTQTYICNVNHKPSNTKVDKKVEPKSCGGGGSGGGGSGGGSGGGGSEIVLTQSPGTLSLSPGERATLSCRASQSVTSSYLAWYQQKPGQAPRLLINVGSRRATGIPDRFSGSGSGTDFTLTISRLEPEDFAVYYCQQGIMLPPTFGQGTKVEIKSSASTKGPSVFPLAPSSKSTSGGTAALGCLVKDYFPEPVTVSWNSGALTSGVHTFPAVLQSSGLYSLSSVVTVPSSSLGTQTYICNVNHKPSNTKVDKKVEPKSC
notes: as for B1
For B3, in test [1], the Kd was determined as 9.43 nM, the off-rate (koff) is 0.0127 s⁻¹, the kon worked out at 1.35e+06 M⁻¹ s⁻¹ and the “t 1/2” value is 0.917 min. Further, in test [2], the Kd came to 9.07 nM, the koff stood at 0.000778 s⁻¹, the kon was found to be 85700 M⁻¹ s⁻¹ and the “t 1/2” value was 14.8 min.

B4: FAP (4B9)-CD40 Contorsbody P1AE1799 (bispecific antibody, IgG1)
chain 1: not shown
chain 2: EVQLLESGGGLVQPGGSLRLSCAASGYSFTGYYIHWVRQAPGKGLEWVGRVIPNAGGTSYNQKFKGRFTISVDNSKNTAYLQMNSLRAEDTAVYYCAREGIYWWGQGTTVTVSSASTKGPSVFPLAPSSKSTSGGTAALGCLVKDYFPEPVTVSWNSGALTSGVHTFPAVLQSSGLYSLSSVVTVPSSSLGTQTYICNVNHKPSNTKVDKKVEPKSCGGGGSGGGGSDKTHTCPPCPAPEAAGGPSVFLFPPKPKDTLMISRTPEVTCVVVDVSHEDPEVKFNWYVDGVEVHNAKTKPREEQYNSTYRVVSVLTVLHQDWLNGKEYKCKVSNKALGAPIEKTISKAKGQPREPQVCTLPPSRDELTKNQVSLSCAVKGFYPSDIAVEWESNGQPENNYKTTPPVLDSDGSFFLVSKLTVDKSRWQQGNVFSCSVMHEALHNHYTQKSLSLSPGKGGGGSGGGGSDIQMTQSPSSLSASVGDRVTITCRSSQSLVHSNGNTFLHWYQQKPGKAPKLLIYTVSNRFSGVPSRFSGSGSGTDFTLTISSLQPEDFATYFCSQTTHVPWTFGGGTKVEIKRTVAAPSVFIFPPSDEQLKSGTASVVCLLNNFYPREAKVQWKVDNALQSGNSQESVTEQDSKDSTYSLSSTLTLSKADYEKHKVYACEVTHQGLSSPVTKSFNRGECGGGGSGGGGSGGGSGGGGSEIVLTQSPGTLSLSPGERATLSCRASQSVTSSYLAWYQQKPGQAPRLLINVGSRRATGIPDRFSGSGSGTDFTLTISRLEPEDFAVYYCQQGIMLPPTFGQGTKVEIKSSASTKGPSVFPLAPSSKSTSGGTAALGCLVKDYFPEPVTVSWNSGALTSGVHTFPAVLQSSGLYSLSSVVTVPSSSLGTQTYICNVNHKPSNTKVDKKVEPKSC
notes: as for B1
For the molecule B4, in test [1], the Kd worked out at 15.7 nM, the off-rate constant (koff) was found to be 0.0151 s⁻¹, the kon came out at 957000 M⁻¹ s⁻¹ and the “t 1/2” value amounted to 0.767 min. Besides, in test [2], the Kd amounted to 4.58 nM, the koff is 0.000253 s⁻¹, the kon was determined as 55300 M⁻¹ s⁻¹ and the “t 1/2” value was found to be 45.7 min.

B5: FAP (4B9)-CD40 Contorsbody P1AE2255 (bispecific antibody, IgG1)
chain 1: not shown
chain 2: EVQLLESGGGLVQPGGSLRLSCAASGYSFTGYYIHWVRQAPGKGLEWVGRVIPNAGGTSYNQKFKGRFTISVDNSKNTAYLQMNSLRAEDTAVYYCAREGIYWWGQGTTVTVSSASTKGPSVFPLAPSSKSTSGGTAALGCLVEDYFPEPVTVSWNSGALTSGVHTFPAVLQSSGLYSLSSVVTVPSSSLGTQTYICNVNHKPSNTKVDEKVEPKSCGGGGSGGGGSDKTHTCPPCPAPEAAGGPSVFLFPPKPKDTLMISRTPEVTCVVVDVSHEDPEVKFNWYVDGVEVHNAKTKPREEQYNSTYRVVSVLTVLHQDWLNGKEYKCKVSNKALGAPIEKTISKAKGQPREPQVCTLPPSRDELTKNQVSLSCAVKGFYPSDIAVEWESNGQPENNYKTTPPVLDSDGSFFLVSKLTVDKSRWQQGNVFSCSVMHEALHNHYTQKSLSLSPGKGGGGSGGGGSDIQMTQSPSSLSASVGDRVTITCRSSQSLVHSNGNTFLHWYQQKPGKAPKLLIYTVSNRFSGVPSRFSGSGSGTDFTLTISSLQPEDFATYFCSQTTHVPWTFGGGTKVEIKRTVAAPSVFIFPPSDRKLKSGTASVVCLLNNFYPREAKVQWKVDNALQSGNSQESVTEQDSKDSTYSLSSTLTLSKADYEKHKVYACEVTHQGLSSPVTKSFNRGECGGGGSGGGGSGGGSGGGGSEIVLTQSPGTLSLSPGERATLSCRASQSVTSSYLAWYQQKPGQAPRLLINVGSRRATGIPDRFSGSGSGTDFTLTISRLEPEDFAVYYCQQGIMLPPTFGQGTKVEIKSSASTKGPSVFPLAPSSKSTSGGTAALGCLVKDYFPEPVTVSWNSGALTSGVHTFPAVLQSSGLYSLSSVVTVPSSSLGTQTYICNVNHKPSNTKVDKKVEPKSC
notes: 2+1 contorsbody with charged residues in the CD40 Fabs; IgG1 Fc knob/hole, P329G LALA
B5: in test [1], the Kd was 17.3 nM, the koff turned out to be 0.0159 s⁻¹, the on-rate constant (kon) was determined as 918000 M⁻¹ s⁻¹ and the “t 1/2” value worked out at 0.733 min. Further, in test [2], the Kd stood at 4.44 nM, the koff is 0.000235 s⁻¹, the kon turned out to be 52800 M⁻¹ s⁻¹ and the “t 1/2” value came to 49.2 min.

A word on the koff: it is the first-order rate constant of dissociation. The term kon denotes the rate constant with which the complex forms.
